Measurements: the Immune Epitope Database (IEDB)

Legend:
HLA-A*29:02 = test: IEDB peptide-MHC binding, purified MHC/competitive/radioactivity; filed as Kd, often an IC50 or EC50 that approximates it; ≥ and ≤ were set here for values at or beyond the usual limits of such assays
HLA-A*01:01 = test: as above
HLA-A*24:02 [1] = test: as above
HLA-A*30:02 = test: as above
HLA-A*23:01 = test: as above
HLA-A*26:01 [2] = test: as above
HLA-B*15:01 = test: as above
HLA-B*44:02 = test: as above
HLA-B*44:03 = test: as above
HLA-A*24:02 [3] = test: IEDB peptide-MHC binding, purified MHC/competitive/fluorescence; ≥ and ≤ were set here for values at or beyond the usual limits of such assays; conditions: source organism: Zaire ebolavirus
HLA-A*02:01 = test: as above; conditions: source organism: Zaire ebolavirus
HLA-A*26:01 [4] = test: IEDB peptide-MHC binding, purified MHC/direct/fluorescence; filed as Kd, often an IC50 or EC50 that approximates it; ≥ and ≤ were set here for values at or beyond the usual limits of such assays; conditions: source organism: Salmonella enterica subsp. enterica serovar Typhimurium
HLA-A*33:01 = test: IEDB peptide-MHC binding, purified MHC/competitive/radioactivity; filed as Kd, often an IC50 or EC50 that approximates it; ≥ and ≤ were set here for values at or beyond the usual limits of such assays
HLA-A*68:01 = test: as above
HLA-A*11:01 = test: as above
HLA-A*31:01 = test: as above
HLA-A*03:01 = test: as above
HLA-B*08:01 = test: as above
[5] = source organism: SARS coronavirus Tor2
[6] = source organism: Vaccinia virus WR
[7] = source organism: Dengue virus 4 Philippines/H241/1956
[8] = source organism: Dengue virus 2 Jamaica/1409/1983
[9] = source organism: Mammarenavirus guanaritoense
[10] = source organism: Triticum aestivum
[11] = source organism: Mammarenavirus brazilense
[12] = source organism: Lymphocytic choriomeningitis virus (strain Armstrong)
[13] = source organism: Mammarenavirus whitewaterense

LTNSVIIMAY
Kd (HLA-A*29:02; [5]): 0.00807 µM
Kd (HLA-A*01:01; [5]): 0.0981 µM
Kd (HLA-A*24:02 [1]; [5]): ≥ 70.3 µM
Kd (HLA-A*30:02; [5]): 0.0491 µM
Kd (HLA-A*23:01; [5]): ≥ 70 µM
Kd (HLA-A*26:01 [2]; [5]): 2 µM

MADQAMTQMY
Kd (HLA-A*29:02; [5]): 0.00975 µM
Kd (HLA-A*01:01; [5]): 0.0184 µM
Kd (HLA-A*24:02 [1]; [5]): ≥ 70.3 µM
Kd (HLA-A*30:02; [5]): 0.127 µM
Kd (HLA-A*23:01; [5]): ≥ 70 µM
Kd (HLA-A*26:01 [2]; [5]): 2.83 µM

MGLNYKLTF
Kd (HLA-B*15:01; [6]): 3.54 µM

NTNPIQLSSY
Kd (HLA-A*29:02; [5]): 0.966 µM
Kd (HLA-A*01:01; [5]): 0.105 µM
Kd (HLA-A*24:02 [1]; [5]): ≥ 70.3 µM
Kd (HLA-A*30:02; [5]): 0.0742 µM
Kd (HLA-A*23:01; [5]): ≥ 70 µM
Kd (HLA-A*26:01 [2]; [5]): 0.344 µM

NYTQHTSSM
Kd (HLA-A*29:02; [5]): ≥ 45.2 µM
Kd (HLA-A*01:01; [5]): ≥ 57 µM
Kd (HLA-A*24:02 [1]; [5]): ≥ 91.8 µM
Kd (HLA-A*30:02; [5]): ≥ 81.1 µM
Kd (HLA-A*23:01; [5]): ≥ 81.7 µM
Kd (HLA-A*26:01 [2]; [5]): 16.3 µM

QLAMTDTTPF
Kd (HLA-B*15:01; [7]): 0.00234 µM

QMAMTDTTPF
Kd (HLA-A*24:02 [1]; [8]): 3.56 µM
Kd (HLA-B*15:01; [8]): 0.00723 µM

REDLWCGSLI
Kd (HLA-B*44:02; [7]): 0.256 µM
Kd (HLA-B*44:03; [7]): 0.401 µM

REPVNATED
IC50 (HLA-A*24:02 [3]): 12.7 µM
IC50 (HLA-A*02:01): ≥ 383 µM

RFFLPIFSEF
Kd (HLA-A*29:02; [9]): 0.00103 µM
Kd (HLA-A*24:02 [1]; [9]): 0.0102 µM
Kd (HLA-A*23:01; [9]): 0.000232 µM

RIKQRGILGY
Kd (HLA-A*30:02; [8]): 0.0204 µM
Kd (HLA-B*15:01; [8]): 0.0466 µM

RTSFFLWVI
IC50 (HLA-A*24:02 [3]): 0.0169 µM
IC50 (HLA-A*02:01): 0.263 µM

RVKLGLGIM
Kd (HLA-A*26:01 [4]): 1.3 µM

SADSFLLML
IC50 (HLA-A*24:02 [3]): ≥ 177 µM
IC50 (HLA-A*02:01): ≥ 613 µM

SLKSLYEAF
Kd (HLA-B*15:01; [6]): 0.0203 µM

SMMGFKMNY
Kd (HLA-A*29:02; [5]): 0.0139 µM
Kd (HLA-A*01:01; [5]): 3.96 µM
Kd (HLA-A*33:01; [5]): 0.775 µM
Kd (HLA-A*68:01; [5]): 10.6 µM
Kd (HLA-A*24:02 [1]; [5]): 9.36 µM
Kd (HLA-A*11:01; [5]): 0.0106 µM
Kd (HLA-A*30:02; [5]): 0.0103 µM
Kd (HLA-A*31:01; [5]): 0.213 µM
Kd (HLA-A*23:01; [5]): 7.55 µM
Kd (HLA-A*03:01; [5]): 0.00489 µM
Kd (HLA-A*26:01 [2]; [5]): 3.9 µM

SQHQHLAIM
Kd (HLA-B*08:01; [6]): 0.142 µM

SSQVLQQSTY
Kd (HLA-A*29:02; [10]): 2.99 µM
Kd (HLA-A*33:01; [10]): 19 µM
Kd (HLA-A*68:01; [10]): 9.51 µM
Kd (HLA-A*24:02 [1]; [10]): ≥ 42.3 µM
Kd (HLA-A*11:01; [10]): 2.54 µM
Kd (HLA-A*30:02; [10]): 0.588 µM
Kd (HLA-A*31:01; [10]): 9 µM
Kd (HLA-A*23:01; [10]): ≥ 41.5 µM
Kd (HLA-A*03:01; [10]): 13.5 µM
Kd (HLA-A*26:01 [2]; [10]): 4.63 µM

SYLRKFSAL
Kd (HLA-B*08:01; [6]): 0.00598 µM

TDSPETHHY
Kd (HLA-A*29:02; [9]): ≥ 78.9 µM
Kd (HLA-A*01:01; [9]): 16.8 µM
Kd (HLA-A*24:02 [1]; [9]): ≥ 77.5 µM
Kd (HLA-A*30:02; [9]): 9.32 µM
Kd (HLA-A*23:01; [9]): ≥ 77.7 µM
Kd (HLA-A*26:01 [2]; [9]): ≥ 77.9 µM

TLDESFLGRY
Kd (HLA-A*29:02; [5]): 0.155 µM
Kd (HLA-A*01:01; [5]): 0.00566 µM
Kd (HLA-A*24:02 [1]; [5]): ≥ 70.3 µM
Kd (HLA-A*30:02; [5]): 0.00832 µM
Kd (HLA-A*23:01; [5]): ≥ 70 µM
Kd (HLA-A*26:01 [2]; [5]): 0.132 µM

TPMLRHTIE
Kd (HLA-B*08:01; source organism: Dengue virus 3 Martinique/1243/1999): 0.00336 µM

TYQNKVVKVL
Kd (HLA-B*08:01; [7]): 0.155 µM

VDICFWSTL
Kd (HLA-A*29:02; [11]): ≥ 78.9 µM
Kd (HLA-A*01:01; [11]): 12 µM
Kd (HLA-A*24:02 [1]; [11]): 5.63 µM
Kd (HLA-A*30:02; [11]): 9.76 µM
Kd (HLA-A*23:01; [11]): 7.57 µM
Kd (HLA-A*26:01 [2]; [11]): ≥ 77.9 µM

VEGVSGGAW
Kd (HLA-B*44:02; [7]): 0.151 µM
Kd (HLA-B*44:03; [7]): 0.114 µM

VEGVSGGSW
Kd (HLA-B*44:02; [8]): 0.22 µM
Kd (HLA-B*44:03; [8]): 0.111 µM

VFFGYFASHF
Kd (HLA-A*29:02; [5]): 0.000261 µM
Kd (HLA-A*01:01; [5]): 12.9 µM
Kd (HLA-A*24:02 [1]; [5]): 0.00463 µM
Kd (HLA-A*30:02; [5]): 2.82 µM
Kd (HLA-A*23:01; [5]): 0.000595 µM
Kd (HLA-A*26:01 [2]; [5]): 4.13 µM

VLLSKRPSL
Kd (HLA-B*08:01; [6]): 0.078 µM

VLYSYILFL
Kd (HLA-B*15:01; source organism: Vaccinia virus Copenhagen): 0.559 µM

WCSQTSYQYL
Kd (HLA-A*29:02; [12]): 19 µM
Kd (HLA-A*01:01; [12]): 1.04 µM
Kd (HLA-A*24:02 [1]; [12]): 15.9 µM
Kd (HLA-A*30:02; [12]): ≥ 29.6 µM
Kd (HLA-A*23:01; [12]): 8.29 µM
Kd (HLA-A*26:01 [2]; [12]): ≥ 69.7 µM

WDIKDPSLL
Kd (HLA-A*29:02; [13]): ≥ 27.6 µM
Kd (HLA-A*01:01; [13]): ≥ 42.3 µM
Kd (HLA-A*24:02 [1]; [13]): ≥ 77.5 µM
Kd (HLA-A*30:02; [13]): ≥ 34.8 µM
Kd (HLA-A*23:01; [13]): ≥ 77.7 µM
Kd (HLA-A*26:01 [2]; [13]): ≥ 77.9 µM
